Assay results as given in the nanobody polyreactivity screen of Harvey et al. (2022).

Experiment: yeast display, Sf9 membrane polyspecificity reagent, FACS + sequencing; frameworks hold sequencing errors
Method in brief: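 Galactose induction of a Saccharomyces cerevisiae BJ5465 synthetic nanobody display library ran 36–48 hours. The cells were then stained for 1 hour at 4 °C with 10% biotinylated, detergent-solubilized Sf9 membrane reagent, pulled down on streptavidin microbeads and FACS-sorted into low and high (top ~1%) gates on expression and reagent-binding fluorescence. Labels for polyreactivity follow the gate of origin.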

| Sequence | polyreactivity (PSR sort gate) |
| --- | --- |
| QVQLVESGGGLDQAGGSLRLSCAASGRIVVGYAMGWYRQAPGKERELVAAINRSGSSTYYADSVKGRFTISRDNGKITVYLQMNSLKPEDTAVYYCNARSGNRYGPRYDYWGQGTQVTVSS | high polyreactivity |
| QVQLVESGGGLVQAGGSLRLSSAASGRILQFNAMGWYRQAPGKDRELVAAITSGGSTNYADSVKGRFTISRDNAKNTVYLQMNSLKPEVTAVYYCAAQSLLWQRRLRGYYYWGQGTQVTVSS | high polyreactivity |
| QVQLVESCGGLVQAGGSLRLSCASSGFIFFENAMGCYIQAPCKERELVAVISSSGTSTYYADSVKGRFTISRDNAKNTVYLQMTSLKPEDTAVYYCAKDYYRSYGREDYWGQGTQVTVSS | low polyreactivity |
| QLQLQESGGGLVQAGGSLRLSCAASGNISVTGFMGWYRQAPGKERELVASIGIGGTTYYADSVKGRFSISRDNAKNTVYLQMNSLKPEDTAVYYCAARYLYYAYSYWGQGTQVTVSS | low polyreactivity |
| QVQLQESGGGLVLAGGSLRLSCSASGNISVYGSMGWYRQAPGKEREFVATIDPGTNTNYADSVKDRFTISRDNAKNTVYLQMNSLKPEDTAVYYGAVEAGSDWPYPYWGQGTQVTVSS | low polyreactivity |
| QVQLVESGGGLVQAGGSLRLSCAASGSIFARYAMGWYRQAPGKERELVAAISSNSASTYYADSVKGRFTSSRDNAKNTVYLQMNSLKPEDTAVDYCATAYRSDWLNDYWGQGTQVTVSS | low polyreactivity |
| QVQLVESGGGLVQAGGSLRLSCAASGNIFRPYTMGWYRQAPGKERELVARISSGGSTNYADSVKGRFTISRDNAKNTVYLQMNSLKPEDTAVYYCNTVFRGSSTRGYDYWGQGTQVTVSS | high polyreactivity |
| EVQLVESGAGLLQAGGSLRISCAASGITLAYYAMGGYRQAPGTERELVAVINIGVSTDYADSVKGRFTISRDNAKNTVYVQMTSLKPEDTAVYYSAAGWGRRWPQYNYWGQGTQVTVSS | high polyreactivity |
| QVQLVESGGGLVQAGGSLRLSCAASGRTFTKYAMGWDRQAPGKERELVAVISVIGGTNYADSVKWRFTISRDNAKNTVYLQMNSLKPEDTAVYYCAAVSREHDYWGQGTQVTVSS | high polyreactivity |
| QVQLVESGGGLVQAGGSLRLSCAASGFTFVTNAMGWYRQAPGKERELVAAISRRGGSTYYADSVKGRFTISRDNAKNTVDLQMNSLKPEDTPVYYCNADRQRRRQFSFSSPYDYWGQGTQVTVSS | high polyreactivity |
| QVELVESGGGLVQPGGRLRLSCAASGRIFRYNTMGWYRQAPGKEREFVAAITQRGVNTYYADSVKGRFTISRDNAKNTVYLQRNSLKPEDTAVYYCNAKRYSYWIYRAYDYWGQGTQVTVSS | low polyreactivity |
| QVQLVESGGGLVQAGGSLRLSCAASGRTFHRYAMGWYRQAPGKERELVAAITSSGGSPNYADSVKGRFTISRDNAKNTVYLQMNSLKPEDTAVYYCATDRYRYTSHPWSRGFDYWGQGTQVTVSS | low polyreactivity |
| QVQLVESGGGLVQAGGSLRLSCAASGSILLDYAMGWYRQAPGKERELVAVISRRGTSTYYADSVKGRFTISRDNAKNTVYLQMNSLKPEDTAVYYCATSTWSFYRRYDYWGQGTQVTVSS | high polyreactivity |
| QVQLVESGGGLVQAGGSLRLSCAASGSIFLYNAMGWYRQAPGKERELVAAISASGGSTYYADSVKGRFTISRDNAKNTVYLQMNSLKPEDTAVYYCAAQYSDYDGFTWPLPPRYDYWGQGTQVTVSS | high polyreactivity |
| QVQLVESGGGLVQAGGSLRLSCAASGFTFVKNAMGWYRQAPGKERELVAAITGSAGRTYYADSVKGRFTISRANAKNTVYLQMNSLKPEDTAVYYCNVYYGYFRSRYGYWGQGTQVTVSS | high polyreactivity |
| QVQLVESGGGLVQAGGSLRLSCAASGRIFFGYAMGWYRQAPGKEREFVAAITRRGGSTYYADSVKGRFTISRDNAKNTVYLQMNSLKPEDTADYYCAKDTIGGASPHYYWGQGTQVTVSS | high polyreactivity |
| QVQLVESGGGLVQAGGSLRLSSAASGFIFGAYAMGWYRQAPGKERELVAANSSRGGNTYYADSVKGRFTISRDNAKNTVYLQMNSLKPEDPAVYDCNAVGYAPYLYVPPPYEYWGQGTQVTVSS | high polyreactivity |
| QVHLVESGGGIVQAGGSLRLSCAASGRTFRKYAMGWYRQAPGKEMELVAAISWSGGSTYYANSVKGRFTISRDHAKNTVYLQLNSLIPEDPAVYYCAATAYYYYDYDYWGQGTQVTVSS | low polyreactivity |
| QVQLVESGGGLVQAGGSLRLSCAASGSIFLVNAKGWYRQAPGKERELVAAITWIGGSTYYADSVKGRFTISRDNAKNTVYLQMNSLKPEDTAVYYCAAYGKRLGGGGYYWGQGTQVTVSS | high polyreactivity |
| QVQLVESGGGLVQAGGSLRLSCAASGRIFRSNAMGWYRQAPGKERELVAAINNRDTSTYADSVKGRFTISRDNAKNTVYLQMNSLKPEDTAVYYCAARYQYYSTYGVTLDYWGQGTQVTVSS | low polyreactivity |
| QVQLVESGGGLVQAGGSLRLSCAASGITFYIKAMGWYRQAPGKERELVAVIDSRGSSTFYADSVKGRFTISRDNAKNTVYLQMNSLKPEDTAVYYCAVEGYPGRYRDPGDLYYYWGQGTQVTLSS | low polyreactivity |
